From paper PMC4933460, “Extracellular Regulation of Bone Morphogenetic Protein Activity by the Microfibril Component Fibrillin-1*” (The Journal of Biological Chemistry, 2016)

B1: BMP-7 PD variant 218-292 (domain or fragment, UniProt P18075 218-292, looked up)
chain: ASEEGWLVFDITATSNHWVVNPRHNLGLQLSVETLDGQSINPKLAGLIGRHGPQNKQPFMVAFFKATEVHFRSIR
notes: also called Ala218-Arg292; source: E. coli, purified by chelating chromatography
B2: BMP-7 growth factor (GF) dimer (ligand, UniProt P18075 293-431, looked up)
chain: STGSKQRSQNRSKTPKNQEALRMANVAENSSSDQRQACKKHELYVSFRDLGWQDWIIAPEGYAAYYCEGECAFPLNSYMNATNHAIVQTLVHFINPETVPKPCCAPTQLNAISVLYFDDSSNVILKKYRNMVVRACGCH
notes: The same GF is a component of the BMP-7 complex m23; also called BMP-7 GF; mature growth factor; source: stably transfected HEK293 EBNA cells; separated from the purified BMP-7 complex in 8 M urea, 1 M NaCl by chelating chromatography (flow-through)
B3: BMP-7 PD truncation variant 74-292 (domain or fragment)
chain: not shown
notes: source: E. coli, purified by chelating chromatography
B4: BMP-7 prodomain, full-length PD (residues 30-292), E. coli (domain or fragment)
chain: not shown
notes: also called full-length BMP-7 PD; source: E. coli, purified by chelating chromatography; not shown: His6, C-terminal, kept
B5: BMP-7 PD variant 241-292 (domain or fragment, UniProt P18075 241-292, looked up)
chain: HNLGLQLSVETLDGQSINPKLAGLIGRHGPQNKQPFMVAFFKATEVHFRSIR
notes: as for B3
B6: BMP-7 prodomain of the HEK293 EBNA cell-expressed BMP-7 complex (domain or fragment)
chain: not shown
notes: Glycosylated (carbohydrate chains absent in the E. coli preparation); also called PD; BMP-7 PD; source: stably transfected HEK293 EBNA cells, purified as part of the BMP-7 complex (chelating chromatography, gel filtration)
B7: BMP-7 PD variant 30-217 (domain or fragment)
chain: not shown
notes: BMP-7 prodomain, residues 30-217 of the BMP-7 precursor; source: E. coli, purified by chelating chromatography
B8: BMP-7 PD variant 30-184 (domain or fragment)
chain: not shown
notes: BMP-7 prodomain, residues 30-184 of the BMP-7 precursor; source: E. coli, purified by chelating chromatography

Experiments:
[1] = biological target: B4; experiment: SPR; PD/PD interaction: 500-800 RU of full-length PD (30-292) or truncated variants (48-292, 55-292) immobilised, 0-320 nM PD variants injected in HBS-EP with 1 M urea; apparent KD; settings: both partners purified
[2] = biological target: T1, BMP-7 PD truncation variant 65-292 (UniProt P18075 65-292); experiment: SPR; BIAcore 2000; BMP-7 GF covalently coupled to a CM5 chip (500 RU), PD variants flown over in HBS-EP pH 7.4 with 1 M urea; 1:1 model with mass transfer; apparent KD = kd/ka; settings: both partners purified
T1 construct: source: E. coli, purified by chelating chromatography

[3] = biological target: B4; experiment: as above; settings: both partners purified
[4] = biological target: T2, BMP-7 PD truncation variant 48-292 (UniProt P18075 48-292); experiment: as above; settings: both partners purified
T2 construct: source: E. coli, purified by chelating chromatography; not shown: His6, C-terminal, kept

[5] = biological target: T3, BMP-7 PD truncation variant 55-292 (UniProt P18075 55-292); experiment: as above; settings: both partners purified
T3 construct: source: E. coli, purified by chelating chromatography

[6] = biological target: T4, BMP-7 PD (30-292) R67A (UniProt P18075 30-292, R67A); experiment: ELISA; sandwich ELISA of reconstitution in solution: PD variants dialysed with the GF in TBS with 1 M urea overnight, captured by coated monoclonal anti-His6 antibody (C-terminal His6 of the PD), GF detected with an anti-GF antibody; settings: both partners purified
T4 construct: source: E. coli, purified by chelating chromatography; not shown: His6, C-terminal, kept

[7] = biological target: T5, BMP-7 PD (30-292) H66A (UniProt P18075 30-292, H66A); experiment: as above; settings: both partners purified
T5 construct: source: E. coli, purified by chelating chromatography; not shown: His6, C-terminal, kept

[8] = biological target: T6, BMP-7 PD (30-292) P68A (UniProt P18075 30-292, P68A); experiment: as above; settings: both partners purified
T6 construct: source: E. coli, purified by chelating chromatography; not shown: His6, C-terminal, kept

[9] = biological target: B4; experiment: SPR; E. coli-derived full-length PD (30-292) immobilised, GF flown over in HBS-EP with 1 M urea; apparent KD = kd/ka; settings: both partners purified
[10] = biological target: B4; experiment: SPR; 1,000 RU of BMP-7 PD immobilised, 0-80 nM GF injected in sodium acetate buffer pH 4.5, 0.15 M NaCl, 3 mM EDTA, 0.005% P20; apparent KD; settings: both partners purified
[11] = biological target: T7, rF87, N-terminal fragment of fibrillin-1 (Ser19-Ile329) (UniProt P35555 19-329); experiment: SPR; PD variants immobilised at 500-800 RU, rF87 injected at 0-80 nM in HBS-EP (no urea); apparent KD; settings: both partners purified
T7 construct: The sentence of the methods may also give rF87 the tandem C-terminal Strep-tag; it cannot be told; also called fibrillin-1 (rF87); N-terminal end of fibrillin-1
T7 sequence (P35555 19-329): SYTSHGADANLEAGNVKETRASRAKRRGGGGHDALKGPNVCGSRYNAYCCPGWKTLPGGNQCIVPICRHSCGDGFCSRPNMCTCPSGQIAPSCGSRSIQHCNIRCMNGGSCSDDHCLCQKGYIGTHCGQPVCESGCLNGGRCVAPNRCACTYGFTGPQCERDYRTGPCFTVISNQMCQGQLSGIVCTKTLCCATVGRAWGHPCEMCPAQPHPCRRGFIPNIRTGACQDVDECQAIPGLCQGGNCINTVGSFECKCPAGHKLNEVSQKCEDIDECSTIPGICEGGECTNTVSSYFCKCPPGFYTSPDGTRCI

[12] = biological target: the molecule itself; experiment: SPR; PD/PD interaction: 500-800 RU of full-length PD (30-292) or truncated variants (48-292, 55-292) immobilised, 0-320 nM PD variants injected in HBS-EP with 1 M urea; apparent KD
[13] = biological target: the molecule itself; experiment: velocity sedimentation in sucrose gradients; 10 μg BMP-7 complex dialysed against TBS with 1 M urea, 5-20% sucrose gradient, 28 fractions, Western blots for PD and GF

Binder: B1
Kd [1]: 26.8 ± 3.1 nM

Binder: B2
Kd [2]: 8 ± 1 nM
Kd [3]: 19.4 nM
Kd [4]: 19 ± 1 nM
Kd [5]: 15 ± 3 nM
percent inhibition of complex formation [6]: ~65%
percent inhibition of complex formation [7]: 30%
percent inhibition of complex formation [8]: ~65%
Kd [9]: 31.5 ± 0.2 nM
Kd [10]: 20 ± 0.1 nM

Binder: B3
Kd [11]: 26 ± 4 nM

Binder: B4
Kd [12]: 3 ± 0.01 nM
Kd [11]: 32 ± 7 nM

Binder: B5
Kd [1]: 39.1 ± 3.3 nM

Binder: B6
stoichiometry N [13]: 2

Binder: B7
Kd [11]: 27 ± 6 nM

Binder: B8
Kd [11]: 38 ± 3 nM
